# In publication PMC5370183, “Kinetics of the LOV domain of ZEITLUPE determine its circadian function in Arabidopsis” (eLife, 2017):
# B1: FKF1 28–174 (FLAVIN-BINDING, KELCH REPEAT, F-BOX 1 LOV domain) (domain or fragment, Arabidopsis thaliana, UniProt Q9C9W9 28-174, looked up)
# chain: NDGIEEQVEDEKLPLEVGMFYYPMTPPSFIVSDALEPDFPLIYVNRVFEVFTGYRADEVLGRNCRFLQYRDPRAQRRHPLVDPVVVSEIRRCLEEGIEFQGELLNFRKDGTPLVNRLRLAPIRDDDGTITHVIGIQVFSETTIDLDR
# notes: source: purified protein
# B2: WT ZTL 29–165 (ZEITLUPE LOV domain construct ZTL-S) (domain or fragment, Arabidopsis thaliana, UniProt Q94BT6 29-165, looked up)
# chain: GGPIPYPVGNLLHTAPCGFVVTDAVEPDQPIIYVNTVFEMVTGYRAEEVLGGNCRFLQCRGPFAKRRHPLVDSMVVSEIRKCIDEGIEFQGELLNFRKDGSPLMNRLRLTPIYGDDDTITHIIGIQFFIETDIDLGP
# notes: also called ZTL LOV domain
# B3: ZTL 29–165 V48I:G80R (domain or fragment, Arabidopsis thaliana, UniProt Q94BT6 29-165, looked up)
# chain: GGPIPYPVGNLLHTAPCGFIVTDAVEPDQPIIYVNTVFEMVTGYRAEEVLGRNCRFLQCRGPFAKRRHPLVDSMVVSEIRKCIDEGIEFQGELLNFRKDGSPLMNRLRLTPIYGDDDTITHIIGIQFFIETDIDLGP
# notes: Crystallised in the dark state (5SVV) and in the light state with the C4a adduct between C82 and FMN (5SVW)
# B4: ZTL 29–165 G80R (domain or fragment, Arabidopsis thaliana, UniProt Q94BT6 29-165, looked up)
# chain: GGPIPYPVGNLLHTAPCGFVVTDAVEPDQPIIYVNTVFEMVTGYRAEEVLGRNCRFLQCRGPFAKRRHPLVDSMVVSEIRKCIDEGIEFQGELLNFRKDGSPLMNRLRLTPIYGDDDTITHIIGIQFFIETDIDLGP
# notes: Tested by SEC in dark and light state
# B5: ZTL 29–165 R95A (domain or fragment, Arabidopsis thaliana, UniProt Q94BT6 29-165, looked up)
# chain: GGPIPYPVGNLLHTAPCGFVVTDAVEPDQPIIYVNTVFEMVTGYRAEEVLGGNCRFLQCRGPFAKRAHPLVDSMVVSEIRKCIDEGIEFQGELLNFRKDGSPLMNRLRLTPIYGDDDTITHIIGIQFFIETDIDLGP
# B6: ZTL 29–165 G46S:G80R (domain or fragment, Arabidopsis thaliana, UniProt Q94BT6 29-165, looked up)
# chain: GGPIPYPVGNLLHTAPCSFVVTDAVEPDQPIIYVNTVFEMVTGYRAEEVLGRNCRFLQCRGPFAKRRHPLVDSMVVSEIRKCIDEGIEFQGELLNFRKDGSPLMNRLRLTPIYGDDDTITHIIGIQFFIETDIDLGP
# B7: ZTL 16–165 (domain or fragment, Arabidopsis thaliana, UniProt Q94BT6 16-165, looked up)
# chain: SLADDEEGGLFPGGGPIPYPVGNLLHTAPCGFVVTDAVEPDQPIIYVNTVFEMVTGYRAEEVLGGNCRFLQCRGPFAKRRHPLVDSMVVSEIRKCIDEGIEFQGELLNFRKDGSPLMNRLRLTPIYGDDDTITHIIGIQFFIETDIDLGP
# notes: source: purified protein
# Legend:
# [1] = biological target: the molecule itself; assay: SEC; Superdex 200 10/300 analytical column in stabilizing buffer (50 mM Tris pH 7 or 50 mM Hepes pH 8 with 100 mM and 10% glycerol); apparent MW against standards; G80R in dark and light state
# [2] = biological target: the molecule itself; assay: SEC; R95A at 130 µM and 13 µM, dark and light state; elution not concentration dependent; dimer to monomers
Protein,stoichiometry N [1],Kd [2] [nM],stoichiometry N [2]
B1,2,,
B2,2,,
B3,2,,
B4,2,,
B5,,< 200,2
B6,2,,
B7,2,,
